From publication PMC10728118, “Mutant GGGGCC RNA prevents YY1 from binding to Fuzzy promoter which stimulates Wnt/β-catenin pathway in C9ALS/FTD”

Tests used:
[1] = biological target: His-YY1 ZF1+ZF2 del352-end (UniProt P25490); experiment: EMSA; conditions: EMSA: 10 mM HEPES-KOH, 12 mM Tris-HCl, 50 mM NaCl, 50 mM KCl, 5 mM MgCl2, 100 uM ZnCl2, 0.01% NP-40, 5% glycerol, 2.5 mM DTT, pH 7.4, 25 C, 2.5 nM probe; FP: …
[2] = biological target: His-YY1 ZF1+ZF2+ZF3 del382-end (UniProt P25490); experiment: EMSA; conditions: EMSA: 10 mM HEPES-KOH, 12 mM Tris-HCl, 50 mM NaCl, 50 mM KCl, 5 mM MgCl2, 100 uM ZnCl2, 0.01% NP-40, 5% glycerol, 2.5 mM DTT, pH 7.4, 25 C, 2.5 nM probe; FP: …
His-YY1 full-length [3] = biological target: T1, His-YY1 full-length (UniProt P25490 1-414); experiment: EMSA; EMSA: 10 mM HEPES-KOH, 12 mM Tris-HCl, 50 mM NaCl, 50 mM KCl, 5 mM MgCl2, 100 uM ZnCl2, 0.01% NP-40, 5% glycerol, 2.5 mM DTT, pH 7.4, 25 C, 2.5 nM probe; FP: 50 mM Tris-HCl, 100 mM KCl, 2.5 mM MgCl2, 100 uM ZnCl2, pH 7.4, 25 C; conditions: protein: recombinant, tags: His, label: Cy5
His-YY1 full-length [4] = biological target: T1, His-YY1 full-length; experiment: fluorescence polarisation; EMSA: 10 mM HEPES-KOH, 12 mM Tris-HCl, 50 mM NaCl, 50 mM KCl, 5 mM MgCl2, 100 uM ZnCl2, 0.01% NP-40, 5% glycerol, 2.5 mM DTT, pH 7.4, 25 C, 2.5 nM probe; FP: 50 mM Tris-HCl, 100 mM KCl, 2.5 mM MgCl2, 100 uM ZnCl2, pH 7.4, 25 C; conditions: protein: recombinant; tags: His; label: FAM

T1 sequence (P25490 whole entry): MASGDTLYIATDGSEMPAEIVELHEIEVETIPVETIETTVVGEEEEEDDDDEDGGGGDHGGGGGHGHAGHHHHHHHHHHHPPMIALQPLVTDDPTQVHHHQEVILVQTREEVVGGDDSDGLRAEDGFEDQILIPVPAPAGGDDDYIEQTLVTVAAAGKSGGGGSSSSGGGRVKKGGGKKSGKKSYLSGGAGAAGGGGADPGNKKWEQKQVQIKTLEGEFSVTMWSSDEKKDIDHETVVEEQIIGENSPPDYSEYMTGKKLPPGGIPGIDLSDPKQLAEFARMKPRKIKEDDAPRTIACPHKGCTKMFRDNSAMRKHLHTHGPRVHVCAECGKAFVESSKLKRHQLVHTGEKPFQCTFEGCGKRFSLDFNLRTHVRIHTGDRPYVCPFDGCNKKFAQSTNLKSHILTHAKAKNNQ
His-YY1 ZF1+ZF2 del352-end, sequence (P25490 1-351): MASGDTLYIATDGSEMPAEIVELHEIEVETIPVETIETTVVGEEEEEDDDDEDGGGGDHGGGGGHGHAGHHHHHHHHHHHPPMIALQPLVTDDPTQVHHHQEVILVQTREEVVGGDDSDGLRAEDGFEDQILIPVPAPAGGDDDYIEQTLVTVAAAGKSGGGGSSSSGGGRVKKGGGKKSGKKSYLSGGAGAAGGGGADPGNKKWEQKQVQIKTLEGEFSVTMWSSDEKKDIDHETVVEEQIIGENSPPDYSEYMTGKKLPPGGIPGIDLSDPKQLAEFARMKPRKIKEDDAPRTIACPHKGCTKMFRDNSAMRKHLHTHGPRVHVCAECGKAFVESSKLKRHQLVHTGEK
His-YY1 ZF1+ZF2+ZF3 del382-end, sequence (P25490 1-381): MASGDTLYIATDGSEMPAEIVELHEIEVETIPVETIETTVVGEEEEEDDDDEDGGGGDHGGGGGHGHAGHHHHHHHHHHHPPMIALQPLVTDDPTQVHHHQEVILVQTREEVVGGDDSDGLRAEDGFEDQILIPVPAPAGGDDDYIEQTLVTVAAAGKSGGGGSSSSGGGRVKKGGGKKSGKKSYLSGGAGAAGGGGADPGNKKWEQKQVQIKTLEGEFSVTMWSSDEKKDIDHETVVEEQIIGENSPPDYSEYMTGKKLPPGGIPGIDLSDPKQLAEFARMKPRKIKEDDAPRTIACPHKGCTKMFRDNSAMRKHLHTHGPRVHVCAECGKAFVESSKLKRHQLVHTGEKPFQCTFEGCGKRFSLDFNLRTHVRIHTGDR

## GGGGCCGGGGCCGGGGCCGGGGCCGGGGCCGGGGCCGGGGCCGGGGCC [(GGGGCC)8 RNA]
[1]
  Kd: 129 nM
[2]
  Kd: 59 nM

B1: AAV P5 DNA (dsDNA)
DNA 1: AGGGTCTCCATTTTGAAGCG
DNA 2: CGCTTCAAAATGGAGACCCT
His-YY1 full-length [3]; blunt
  binding result: binds

B2: FuzzyYY1-b DNA (dsDNA)
DNA 1: AGTCCTAAATGGGGGAGGAG
DNA 2: CTCCTCCCCCATTTAGGACT
His-YY1 full-length [3]; blunt
  Kd: 405 ± 45.9 nM

B3: FuzzyYY1-a DNA (dsDNA)
DNA 1: TGGGCAACATGGCGACACCC
DNA 2: GGGTGTCGCCATGTTGCCCA
His-YY1 full-length [3]; blunt
  Kd: 242 ± 21.7 nM

## GGGGCCGGGGCCGGGGCCGGGGCCGGGGCCGGGGCCGGGGCCGGGGCC (ssRNA) [(GGGGCC)8 RNA]
His-YY1 full-length [3]
  Kd: 46.8 ± 3.42 nM

## GGGCGCGGCGCGCGGGCCGGGGCGGGCGCGCGGGCGGGGCGCGGCGCG (ssRNA) [randomised GC-rich RNA]
His-YY1 full-length [3]
  Kd: 201 ± 17.9 nM

B4: PP7 RNA (ssRNA)
RNA: UAAAGUAAGAUAAGGCAAGACAAGGUAAAACGGAACAGAACCGAAGGGAAGAGAAGCAAAGCGAAAGGAAAUAAACAAAAGAAAAAUUCGUAGAAUUCCG
His-YY1 full-length [3]
  binding result: binds

## CGGGGCCGGGGCCGGGGCCGGGGCCGGGGCCGGGGCCGGGGCCGGGGCCG (ssRNA) [FAM-(GGGGCC)8 RNA]
His-YY1 full-length [4]
  Kd: 45.3 ± 3.67 nM
